Experimental data reported in the supplement of paper PMC7125110.
± gives the standard error. Variants at the floor of the assay were thinned out.

B1: glmS ribozyme (parent)
chain: AUAAAAGCGCCAGAACUACAGAAAUGUAGUUGACGAGGAGGAGGUUUAUCGAAUUUUCGGCGGAUGCCUCCAAA

Assays:
Conditions in all cases: with glucosamine-6-phosphate
glucosamine-6-phosphate [1] = variants of: B1; experiment: self-cleavage kobs at 40 uM GlcN6P; higher = faster cleavage; RNA array
Procedure, shortened: (§1)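 Tracking of barcoded ribozyme variants used a hybridised Cy3 probe at 37 °C, after in situ transcription by E. coli RNA polymerase on sequenced MiSeq chips. The flowed solution held 40 μM to 10 mM glucosamine-6-phosphate in HEPES/KCl/Mg(OAc)2 buffer, and imaging ran over ~14 h. kobs was taken from exponential decay fits of normalised per-tile medians, and kcat and KM from weighted Michaelis–Menten fits.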

glucosamine-6-phosphate [2] = variants of: B1; experiment: self-cleavage kobs at 640 uM GlcN6P; higher = faster cleavage; RNA array
Procedure, shortened: as §1

glucosamine-6-phosphate [3] = variants of: B1; experiment: self-cleavage kobs at 2500 uM GlcN6P; higher = faster cleavage; RNA array
Procedure, shortened: as §1

glucosamine-6-phosphate [4] = variants of: B1; experiment: self-cleavage kobs at 10000 uM GlcN6P; higher = faster cleavage; RNA array
Procedure, shortened: as §1

glucosamine-6-phosphate [5] = variants of: B1; experiment: self-cleavage kobs at 160 uM GlcN6P; higher = faster cleavage; RNA array
Procedure, shortened: as §1

Variant	self-cleavage kobs at 40 uM GlcN6P (glucosamine-6-phosphate [1]) [s⁻¹]	self-cleavage kobs at 640 uM GlcN6P (glucosamine-6-phosphate [2]) [s⁻¹]	self-cleavage kobs at 2500 uM GlcN6P (glucosamine-6-phosphate [3]) [s⁻¹]	self-cleavage kobs at 10000 uM GlcN6P (glucosamine-6-phosphate [4]) [s⁻¹]	self-cleavage kobs at 160 uM GlcN6P (glucosamine-6-phosphate [5]) [s⁻¹]
G7U U45C U56A	< 1e-05	< 1e-05	< 1e-05		
G9C G63A A64C C70G	< 1e-05			< 1e-05	
A6G G7A G51C	< 1e-05			< 1e-05	
C10U A52C	< 1e-05			< 1e-05	
C11A C58A A64G	< 1e-05				
G7U G32C	< 1e-05	< 1e-05	< 1e-05	< 1e-05	
A14G U31A A52C	< 1e-05				
C8G A14G A33G	< 1e-05		< 1e-05	< 1e-05	
G7A G9U U31G G41A U65C	< 1e-05	< 1e-05			< 1e-05
U46G G60C	< 1e-05	< 1e-05	< 1e-05	< 1e-05	< 1e-05
G29U U30G G43C C68G	0.000152 ± 2.6e-05			0.0065 ± 0.0015	
G7C G32A	< 1e-05			< 1e-05	< 1e-05
A6C A15U A33U U69G	< 1e-05				
A6C G13C C68G	< 1e-05		< 1e-05		
U30G A33U U56A G63U G66U	< 1e-05			< 1e-05	
C34U G62C	< 1e-05	< 1e-05	< 1e-05	< 1e-05	< 1e-05
U30C G41C C61A C71U	< 1e-05			< 1e-05	
G35A U54A	< 1e-05	< 1e-05	< 1e-05		
G63C C71U	< 1e-05			< 1e-05	< 1e-05
A14U A33G	< 1e-05	< 1e-05		< 1e-05	
G9C U55G	< 1e-05			< 1e-05	
C58G A64G C70G	< 1e-05				
C16U G60U	< 1e-05	< 1e-05			< 1e-05
A14G C67A	0.000654 ± 7e-05	0.00492 ± 0.00077	0.00642 ± 0.0014	0.0413 ± 0.01	0.00108 ± 0.00017
C8G U65G C68A	< 1e-05		< 1e-05		
